Source: US20050249738A1

Molecular target: CD22 on human B cells (human) (UniProt P20273)
Experiment: cell-based or functional assay

Sequence of UniProt P20273 (P20273 20-847): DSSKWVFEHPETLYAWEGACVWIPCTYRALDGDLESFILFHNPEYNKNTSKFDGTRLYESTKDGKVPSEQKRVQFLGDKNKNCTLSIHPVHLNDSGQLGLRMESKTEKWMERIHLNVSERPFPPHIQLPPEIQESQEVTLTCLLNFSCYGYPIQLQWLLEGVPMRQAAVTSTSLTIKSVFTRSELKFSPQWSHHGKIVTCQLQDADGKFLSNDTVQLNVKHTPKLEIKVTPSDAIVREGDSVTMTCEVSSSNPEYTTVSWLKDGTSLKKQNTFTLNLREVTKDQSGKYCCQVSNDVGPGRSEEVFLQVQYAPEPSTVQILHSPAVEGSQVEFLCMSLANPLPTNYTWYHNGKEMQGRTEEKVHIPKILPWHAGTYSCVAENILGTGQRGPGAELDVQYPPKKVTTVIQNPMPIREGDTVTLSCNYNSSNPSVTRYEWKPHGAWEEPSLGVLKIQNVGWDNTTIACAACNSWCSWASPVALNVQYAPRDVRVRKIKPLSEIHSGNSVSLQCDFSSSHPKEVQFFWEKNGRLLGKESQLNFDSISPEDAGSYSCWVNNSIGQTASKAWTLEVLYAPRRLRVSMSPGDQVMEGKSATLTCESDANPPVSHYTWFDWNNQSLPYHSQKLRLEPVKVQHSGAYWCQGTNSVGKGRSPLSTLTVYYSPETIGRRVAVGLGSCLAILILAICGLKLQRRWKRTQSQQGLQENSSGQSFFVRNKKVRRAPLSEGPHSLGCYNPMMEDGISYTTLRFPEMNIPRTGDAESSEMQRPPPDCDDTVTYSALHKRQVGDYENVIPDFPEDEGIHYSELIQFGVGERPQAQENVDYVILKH

Work on LL2-ONCONASE® immunotoxin yielded an IC50 of protein synthesis inhibition, CA 46 cells, 24 h of 0.8 nM, an IC50 of protein synthesis inhibition, Daudi cells, 24 h of 0.1 nM and an IC50 of protein synthesis inhibition, Raji cells, 24 h of 0.8 nM.
